Laboratory results: patent US20190135932A1 (Pfizer, published 2019)
Where “and” joins values, the source holds several entries; their conditions need not be identical. Equal entries are not always repeated.

T1: recombinant human OX40-CD40 fusion construct (amino acids 1-235 of OX40, 216-278 of CD40) expressed on 300-19 … (human, UniProt P43489 29-235; P25942 216-277)
T1 construct: range 1-235;range 216-278; also called OX40R+ 300-19 cells; OX40R transfected cells
T1 sequence (looked up): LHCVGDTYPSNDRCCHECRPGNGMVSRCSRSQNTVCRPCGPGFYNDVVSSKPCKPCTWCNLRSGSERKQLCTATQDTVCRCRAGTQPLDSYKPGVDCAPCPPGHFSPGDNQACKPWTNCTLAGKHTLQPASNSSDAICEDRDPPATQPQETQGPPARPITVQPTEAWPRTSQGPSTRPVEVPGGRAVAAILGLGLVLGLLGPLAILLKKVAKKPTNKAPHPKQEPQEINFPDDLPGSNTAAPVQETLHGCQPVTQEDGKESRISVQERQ

T2: commercially available fusion protein containing the extracellular domain of the murine OX40R (mouse, UniProt P47741 20-211)
T2 construct: extracellular domain; Bought; also called mouse OX40R fusion protein
T2 sequence (looked up): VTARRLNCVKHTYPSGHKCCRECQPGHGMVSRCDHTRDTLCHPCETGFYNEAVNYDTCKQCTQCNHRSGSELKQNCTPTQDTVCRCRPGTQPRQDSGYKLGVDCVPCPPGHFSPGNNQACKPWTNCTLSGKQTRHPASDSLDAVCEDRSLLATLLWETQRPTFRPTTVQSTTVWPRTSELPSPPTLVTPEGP


How the values were obtained:
[1] = target: T1, recombinant human OX40-CD40 fusion …; assay: FACS saturation binding on OX40R+ 300-19 cells (N = 2)
Method: OX40R-expressing cell lines (see below) or activated primary peripheral blood mononuclear cells (see below) were used to assess binding on both the human and cynomolgus OX40 receptors. Cells were harvested and washed (5×10⁵/tube) using wash buffer at RT°. The wash buffer consisted of PBS, 2% heat-inactivated fetal bovine serum (Hyclone, Logan, Utah) and 0.02% sodium azide (Sigma, St. Louis, Mo.). Next, 100 μl of various concentrations of antibody was added to the cells (starting at 30 ug/ml and using a 3-fold titration) diluted in wash buffer containing 0.005 mg/ml of cytocholasin B (Sigma, St. Louis, Mo.). The cells were gently rocked at RT° for 3 hours. Next, the cells were washed twice and resuspended in 0.5 ml/tube with cold wash buffer and 10,000 events were collected and analyzed using a Becton Dickinson FACSCalibur and CellQuest software (San Jose, Calif.).

[2] = target: T3, CD271-Ig (Alexis Biochemicals) (human, UniProt P08138 29-250); assay: ELISA on coated receptor-Ig fusion protein
T3 construct: extracellular domain; Bought; also called nerve growth factor receptor (CD271)
Method: (§1) Maxisorb 96-well plates (Nunc, Roskilde, Denmark) were coated with 100 μl of human TNFα receptor family member fusion proteins at 0.25 μg/ml diluted in BupH™ Carbonate buffer, pH 9.4 (Pierce, Rockford, Ill.) and incubated overnight at 4° C. The selectivity receptor fusion proteins tested included CD40-Ig (Alexis Biochemicals, San Diego, Calif.), CD137-Ig (R&D Systems, Minneapolis, Minn.) and CD271-Ig (Alexis Biochemicals, San Diego, Calif.). Also included as the positive control with each assay was the OX40-Ig fusion protein (in-house construct, Bioexpress, 97/2117). Plates were then washed three times with wash buffer containing 0.05% Tween 20 (Sigma, St Louis, Mo.) diluted in PBS and blocked with 300 μl of 0.5% BSA (Sigma, St Louis, Mo.) in PBS (Sigma, St Louis, Mo.) for 1 hour at RT°. Next, the plates were washed and 100 μl/well of anti-human OX40 reactive antibodies were added to the plates at various concentrations and incubated for 1 hour at RT°. Plates were thoroughly washed three times and OX40R antibody binding was detected with a horse radish peroxidase labeled anti-human kappa chain antibody (Bethyl Laboratories, Montgomery, Tex.) at 25 ng/ml for 1 hour at RD°. Plates were then washed three times which was followed by the addition of 100 μl/well of 1-Step Turbo-TMB substrate (Pierce, Rockford, Ill.) for 30 minutes at RT. The reaction was stopped by adding an equal volume of 2M H₂ SO₄. Absorbance was read at 450 nm on a Molecular Devices Spectra Max 340 (Molecular Devices, Sunnyvale, Calif.).

[3] = target: T4, CD40-Ig (Alexis Biochemicals) (human, UniProt P25942 21-193); assay: ELISA on coated receptor-Ig fusion protein
T4 construct: extracellular domain; Bought; also called CD40 receptor
Method: as §1

[4] = target: T5, CD137-Ig (R&D Systems) (human, UniProt Q07011 24-186); assay: ELISA on coated receptor-Ig fusion protein
T5 construct: extracellular domain; Bought; also called 4-1BB receptor (CD137)
Method: as §1

[5] = target: T2, commercially available fusion protein …; assay: ELISA
[6] = target: T3, CD271-Ig (Alexis Biochemicals); assay: ELISA on coated receptor-Ig fusion proteins, against the EC50 on the OX40R fusion protein
Method: as §1

[7] = target: T4, CD40-Ig (Alexis Biochemicals); assay: as above
Method: as §1

[8] = target: T5, CD137-Ig (R&D Systems); assay: as above
Method: as §1

T4 sequence (P25942 21-193): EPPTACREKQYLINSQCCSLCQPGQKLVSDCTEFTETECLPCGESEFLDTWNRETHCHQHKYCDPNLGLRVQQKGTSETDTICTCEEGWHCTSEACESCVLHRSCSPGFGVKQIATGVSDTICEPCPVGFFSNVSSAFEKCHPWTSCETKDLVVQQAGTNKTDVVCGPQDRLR
T5 sequence (Q07011 whole entry, the tested form may be a part): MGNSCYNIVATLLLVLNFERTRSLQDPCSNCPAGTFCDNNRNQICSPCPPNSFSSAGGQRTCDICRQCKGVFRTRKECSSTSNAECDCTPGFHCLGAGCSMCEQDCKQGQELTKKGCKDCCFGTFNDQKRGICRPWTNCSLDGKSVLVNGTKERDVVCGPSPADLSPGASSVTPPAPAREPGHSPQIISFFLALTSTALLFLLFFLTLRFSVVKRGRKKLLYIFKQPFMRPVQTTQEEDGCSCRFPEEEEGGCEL
T3 sequence (P08138 29-250): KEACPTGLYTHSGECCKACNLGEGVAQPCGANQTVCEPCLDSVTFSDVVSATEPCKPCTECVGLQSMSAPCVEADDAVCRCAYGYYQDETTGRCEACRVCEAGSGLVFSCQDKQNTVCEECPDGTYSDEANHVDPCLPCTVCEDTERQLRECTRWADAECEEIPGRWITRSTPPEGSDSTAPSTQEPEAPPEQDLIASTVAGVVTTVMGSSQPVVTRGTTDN

| EC50 [1] | Selectivity (Binding to CD40, CD137, CD271) [2] [nM] | Selectivity (Binding to CD40, CD137, CD271) [3] [nM] | Selectivity (Binding to CD40, CD137, CD271) [4] [nM] | binding result [5] | fold selectivity for the OX40R over this receptor [6] [fold] | fold selectivity for the OX40R over this receptor [7] [fold] | fold selectivity for the OX40R over this receptor [8] [fold] | Selectivity (binding) [2] | Selectivity (binding) [3] | Selectivity (binding) [4] | Binder |
| --- | --- | --- | --- | --- | --- | --- | --- | --- | --- | --- | --- |
| 0.24 µg/mL and 1.66 nM | > 700 | > 700 | > 700 | – | – | – | – | – | – | – | human monoclonal antibody 18D8 (antibody, human IgG2, kappa, V domains shown) VH: EVQLVESGGGLVQPGRSLRLSCAASGFTFDDYAMHWVRQAPGKGLEWVSGISWNSGSIGYADSVKGRFTISRDNAKNSLYLQMNSLRAEDTALYYCAKDQSTADYYFYYGMDVWGQGTTVTVSS VL: EIVVTQSPATLSLSPGERATLSCRASQSVSSYLAWYQQKPGQAPRLLIYDASNRATGIPARFSGSGSGTDFTLTISSLEPEDFAVYYCQQRSNWPTFGQGTKVEIKR |
| – | – | – | – | no binding | > 100 | > 100 | > 100 | > 100 µg/mL and > 700 nM | > 100 µg/mL and > 700 nM | > 100 µg/mL and > 700 nM | human monoclonal antibody 11D4 (antibody, V domains shown, IgG2 heavy chain, kappa light chain; allotypes G2(n-) and Km3; Alexa Fluor 647 conjugate was used in the species cross-reactivity FACS) VH: EVQLVESGGGLVQPGGSLRLSCAASGFTFSSYSMNWVRQAPGKGLEWVSYISSSSSTIDYADSVKGRFTISRDNAKNSLYLQMNSLRDEDTAVYYCARESGWYLFDYWGQGTLVTVSS VL: DIQMTQSPSSLSASVGDRVTITCRASQGISSWLAWYQQKPEKAPKSLIYAASSLQSGVPSRFSGSGSGTDFTLTISSLQPEDFATYYCQQYNSYPPTFGGGTKVEIKR |
